The source of these data is paper PMC4615246 (Nucleus, 2015).

Test in all cases: LacI/LacO array recruitment in cells
In one test the target is T1, LacI-CFP-Nup155 (human, UniProt O75694 1-1391).
T1 sequence: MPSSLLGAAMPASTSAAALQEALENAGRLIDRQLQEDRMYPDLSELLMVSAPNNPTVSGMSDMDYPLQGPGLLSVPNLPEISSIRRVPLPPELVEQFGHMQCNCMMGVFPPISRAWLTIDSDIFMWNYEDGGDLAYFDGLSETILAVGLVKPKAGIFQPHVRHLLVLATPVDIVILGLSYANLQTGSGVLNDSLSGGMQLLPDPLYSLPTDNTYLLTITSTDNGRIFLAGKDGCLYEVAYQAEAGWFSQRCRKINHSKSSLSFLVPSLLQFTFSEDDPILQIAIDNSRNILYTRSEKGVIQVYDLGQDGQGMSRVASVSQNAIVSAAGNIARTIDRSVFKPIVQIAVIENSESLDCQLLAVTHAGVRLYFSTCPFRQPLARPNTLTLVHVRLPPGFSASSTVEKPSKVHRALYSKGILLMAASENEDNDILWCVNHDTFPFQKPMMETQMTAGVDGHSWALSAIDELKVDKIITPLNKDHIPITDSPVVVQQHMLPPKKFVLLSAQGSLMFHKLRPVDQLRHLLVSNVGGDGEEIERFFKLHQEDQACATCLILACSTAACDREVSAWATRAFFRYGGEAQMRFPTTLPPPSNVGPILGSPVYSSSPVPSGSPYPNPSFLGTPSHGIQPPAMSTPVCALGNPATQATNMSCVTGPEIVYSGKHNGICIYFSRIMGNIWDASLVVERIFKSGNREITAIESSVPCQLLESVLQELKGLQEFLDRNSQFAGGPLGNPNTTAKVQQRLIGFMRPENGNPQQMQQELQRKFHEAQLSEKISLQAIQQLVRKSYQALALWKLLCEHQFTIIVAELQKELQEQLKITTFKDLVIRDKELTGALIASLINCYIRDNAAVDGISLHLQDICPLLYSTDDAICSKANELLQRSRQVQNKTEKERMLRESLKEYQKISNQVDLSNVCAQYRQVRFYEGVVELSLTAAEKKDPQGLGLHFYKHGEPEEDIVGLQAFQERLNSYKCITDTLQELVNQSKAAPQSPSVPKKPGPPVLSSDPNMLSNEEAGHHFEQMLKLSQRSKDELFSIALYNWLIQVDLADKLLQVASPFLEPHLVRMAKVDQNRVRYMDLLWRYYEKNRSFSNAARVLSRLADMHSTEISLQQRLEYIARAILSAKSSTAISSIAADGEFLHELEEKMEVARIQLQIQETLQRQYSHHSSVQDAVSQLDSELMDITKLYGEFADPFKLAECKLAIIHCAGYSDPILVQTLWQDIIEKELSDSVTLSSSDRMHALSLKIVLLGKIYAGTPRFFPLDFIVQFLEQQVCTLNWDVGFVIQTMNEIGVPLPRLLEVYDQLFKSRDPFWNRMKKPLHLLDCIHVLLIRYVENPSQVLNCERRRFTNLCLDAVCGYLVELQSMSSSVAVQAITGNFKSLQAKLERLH

Another test has as its target T2, LacI-CFP-Nup133 (human, UniProt Q8WUM0 1-1156).
T2 sequence: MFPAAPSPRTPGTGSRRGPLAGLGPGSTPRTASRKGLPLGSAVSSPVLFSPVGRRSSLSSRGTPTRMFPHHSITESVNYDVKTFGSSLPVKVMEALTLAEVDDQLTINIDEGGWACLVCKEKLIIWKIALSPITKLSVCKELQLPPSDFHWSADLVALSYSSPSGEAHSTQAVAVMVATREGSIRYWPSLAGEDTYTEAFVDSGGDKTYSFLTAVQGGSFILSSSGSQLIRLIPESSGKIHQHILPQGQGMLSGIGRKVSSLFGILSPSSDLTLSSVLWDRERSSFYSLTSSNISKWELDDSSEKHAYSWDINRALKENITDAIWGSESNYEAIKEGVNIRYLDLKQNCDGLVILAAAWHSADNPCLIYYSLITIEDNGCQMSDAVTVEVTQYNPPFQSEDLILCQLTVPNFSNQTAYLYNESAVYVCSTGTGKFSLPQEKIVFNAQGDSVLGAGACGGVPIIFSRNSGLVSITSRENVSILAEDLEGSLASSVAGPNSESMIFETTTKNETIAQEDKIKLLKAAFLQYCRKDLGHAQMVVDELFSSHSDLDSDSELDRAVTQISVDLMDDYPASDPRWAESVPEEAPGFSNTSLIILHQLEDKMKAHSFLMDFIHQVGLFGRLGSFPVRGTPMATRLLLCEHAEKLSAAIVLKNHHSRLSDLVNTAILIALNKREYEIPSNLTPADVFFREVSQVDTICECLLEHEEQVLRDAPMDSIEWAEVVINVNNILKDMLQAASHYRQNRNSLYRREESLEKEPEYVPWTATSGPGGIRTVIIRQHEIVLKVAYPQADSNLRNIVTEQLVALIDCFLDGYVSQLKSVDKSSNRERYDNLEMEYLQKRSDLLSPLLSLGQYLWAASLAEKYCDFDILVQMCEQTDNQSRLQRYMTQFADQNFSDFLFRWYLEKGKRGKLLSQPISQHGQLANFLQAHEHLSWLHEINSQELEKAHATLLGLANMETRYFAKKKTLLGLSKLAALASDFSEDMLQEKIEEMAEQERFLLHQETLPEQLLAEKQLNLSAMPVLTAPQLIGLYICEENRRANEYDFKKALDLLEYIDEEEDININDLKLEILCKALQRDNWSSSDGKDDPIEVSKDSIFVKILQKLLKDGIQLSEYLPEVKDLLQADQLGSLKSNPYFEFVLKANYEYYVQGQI

Another test has as its target T3, LacI-CFP-Nup50 (human, UniProt Q9UKX7 1-468).
T3 sequence: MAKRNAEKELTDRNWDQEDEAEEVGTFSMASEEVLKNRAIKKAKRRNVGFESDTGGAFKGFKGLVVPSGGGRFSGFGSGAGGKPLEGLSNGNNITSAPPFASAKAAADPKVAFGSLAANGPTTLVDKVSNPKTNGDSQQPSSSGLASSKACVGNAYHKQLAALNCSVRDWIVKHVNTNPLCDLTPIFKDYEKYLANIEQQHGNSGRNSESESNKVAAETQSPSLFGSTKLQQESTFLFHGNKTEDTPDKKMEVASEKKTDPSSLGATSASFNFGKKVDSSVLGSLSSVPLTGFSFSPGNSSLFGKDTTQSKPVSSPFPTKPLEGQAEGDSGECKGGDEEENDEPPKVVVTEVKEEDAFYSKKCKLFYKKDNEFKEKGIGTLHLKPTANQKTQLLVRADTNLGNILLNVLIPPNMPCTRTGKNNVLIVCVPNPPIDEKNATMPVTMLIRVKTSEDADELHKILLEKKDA

B1: Nup93 (endogenous) (natural protein)
chain: MDTEGFGELLQQAEQLAAETEGISELPHVERNLQEIQQAGERLRSRTLTRTSQETADVKASVLLGSRGLDISHISQRLESLSAATTFEPLEPVKDTDIQGFLKNEKDNALLSAIEESRKRTFGMAEEYHRESMLVEWEQVKQRILHTLLASGEDALDFTQESEPSYISDVGPPGRSSLDNIEMAYARQIYIYNEKIVNGHLQPNLVDLCASVAELDDKSISDMWTMVKQMTDVLLTPATDALKNRSSVEVRMEFVRQALAYLEQSYKNYTLVTVFGNLHQAQLGGVPGTYQLVRSFLNIKLPAPLPGLQDGEVEGHPVWALIYYCMRCGDLLAASQVVNRAQHQLGEFKTWFQEYMNSKDRRLSPATENKLRLHYRRALRNNTDPYKRAVYCIIGRCDVTDNQSEVADKTEDYLWLKLNQVCFDDDGTSSPQDRLTLSQFQKQLLEDYGESHFTVNQQPFLYFQVLFLTAQFEAAVAFLFRMERLRCHAVHVALVLFELKLLLKSSGQSAQLLSHEPGDPPCLRRLNFVRLLMLYTRKFESTDPREALQYFYFLRDEKDSQGENMFLRCVSELVIESREFDMILGKLENDGSRKPGVIDKFTSDTKPIINKVASVAENKGLFEEAAKLYDLAKNADKVLELMNKLLSPVVPQISAPQSNKERLKNMALSIAERYRAQGISANKFVDSTFYLLLDLITFFDEYHSGHIDRAFDIIERLKLVPLNQESVEERVAAFRNFSDEIRHNLSEVLLATMNILFTQFKRLKGTSPSSSSRPQRVIEDRDSQLRSQARTLITFAGMIPYRTSGDTNARLVQMEVLMN
B1: the “percent of transfected cells showing colocalization” value came out at 2% with LacI-CFP-Nup155 and 21% in the test with LacI-CFP-Nup133.

B2: Nup53 (endogenous) (natural protein)
chain: MAAFAVEPQGPALGSEPMMLGSPTSPKPGVNAQFLPGFLMGDLPAPVTPQPRSISGPSVGVMEMRSPLLAGGSPPQPVVPAHKDKSGAPPVRSIYDDISSPGLGSTPLTSRRQPNISVMQSPLVGVTSTPGTGQSMFSPASIGQPRKTTLSPAQLDPFYTQGDSLTSEDHLDDSWVTVFGFPQASASYILLQFAQYGNILKHVMSNTGNWMHIRYQSKLQARKALSKDGRIFGESIMIGVKPCIDKSVMESSDRCALSSPSLAFTPPIKTLGTPTQPGSTPRISTMRPLATAYKASTSDYQVISDRQTPKKDESLVSKAMEYMFGW
As for B2, the “percent of transfected cells showing colocalization” value amounted to 46% with LacI-CFP-Nup155, 20% in the test with LacI-CFP-Nup133 and 6% with LacI-CFP-Nup50.
